Assays:
[1] = target: T1, human membrane IgA overexpressed on Ramos cells (human); assay: flow cytometry on IgA+ Ramos cells
T1 construct: its MIGIS-α segment is the short form; also called IgA^+ Ramos; human IgA^+ RAMOS cells

[2] = target: T2, parental (IgA^-) Ramos cell line, which expresses only cell surface IgM (UniProt P01871 1-474); assay: flow cytometry on parental Ramos cells
T2 construct: whole, on cells; Negative control cells without membrane IgA; also called mIgA negative Ramos cells; parental Ramos

[3] = target: T3, human membrane IgA (mIgA), endogenously expressed on primary B cells and DAKIKI cells (human, UniProt P01876 1-398); assay: cell-based or functional assay
[4] = target: T3, human membrane IgA (mIgA), endogenously …; assay: cell-based or functional assay; remark: listed apart in the source
[5] = target: T3, human membrane IgA (mIgA), endogenously …; assay: cell-based or functional assay; remark: listed apart in the source
[6] = target: T3, human membrane IgA (mIgA), endogenously …; assay: cell-based or functional assay; remark: listed apart in the source
[7] = target: T3, human membrane IgA (mIgA), endogenously …; assay: cell-based or functional assay; remark: listed apart in the source
[8] = target: T1, human membrane IgA overexpressed on …; assay: flow cytometry, cell binding on IgA+ Ramos cells; fit table under the plot
[9] = target: T1, human membrane IgA overexpressed on …; assay: flow cytometry, cell binding on IgA+ Ramos cells; fit table under the plot, unit from the y axis (gMFI minus secondary only)
[10] = target: T4, biotinylated human MIGIS-α peptide (human, biotinylated); assay: SPR (Biacore T200, 37 C), biotinylated peptide captured, OAA as analyte, 1:1 fit
T4 peptide: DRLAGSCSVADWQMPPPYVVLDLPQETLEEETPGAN

[11] = target: T5, biotinylated cyno MIGIS-α peptide (cynomolgus monkey); assay: as above
T5 construct: domain: MIGIS-α

[12] = target: T4, biotinylated human MIGIS-α peptide; assay: SPR, OAA format
[13] = target: T5, biotinylated cyno MIGIS-α peptide; assay: SPR, OAA format

T1 sequence (heavy, as listed by the source): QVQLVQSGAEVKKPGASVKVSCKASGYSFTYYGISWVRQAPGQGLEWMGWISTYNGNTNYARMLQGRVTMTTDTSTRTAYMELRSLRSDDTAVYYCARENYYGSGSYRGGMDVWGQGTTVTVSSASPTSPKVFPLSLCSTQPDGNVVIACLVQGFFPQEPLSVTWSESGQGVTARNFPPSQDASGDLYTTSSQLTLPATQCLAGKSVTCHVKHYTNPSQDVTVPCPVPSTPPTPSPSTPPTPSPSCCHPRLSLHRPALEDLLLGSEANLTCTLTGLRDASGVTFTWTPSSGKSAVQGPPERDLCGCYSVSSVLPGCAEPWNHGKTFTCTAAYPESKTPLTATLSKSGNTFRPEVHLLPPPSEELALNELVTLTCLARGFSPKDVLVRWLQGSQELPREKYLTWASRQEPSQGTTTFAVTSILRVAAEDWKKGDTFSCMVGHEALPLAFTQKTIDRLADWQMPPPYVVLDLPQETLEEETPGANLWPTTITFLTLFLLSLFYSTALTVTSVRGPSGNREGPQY
T2 sequence (P01871 whole entry): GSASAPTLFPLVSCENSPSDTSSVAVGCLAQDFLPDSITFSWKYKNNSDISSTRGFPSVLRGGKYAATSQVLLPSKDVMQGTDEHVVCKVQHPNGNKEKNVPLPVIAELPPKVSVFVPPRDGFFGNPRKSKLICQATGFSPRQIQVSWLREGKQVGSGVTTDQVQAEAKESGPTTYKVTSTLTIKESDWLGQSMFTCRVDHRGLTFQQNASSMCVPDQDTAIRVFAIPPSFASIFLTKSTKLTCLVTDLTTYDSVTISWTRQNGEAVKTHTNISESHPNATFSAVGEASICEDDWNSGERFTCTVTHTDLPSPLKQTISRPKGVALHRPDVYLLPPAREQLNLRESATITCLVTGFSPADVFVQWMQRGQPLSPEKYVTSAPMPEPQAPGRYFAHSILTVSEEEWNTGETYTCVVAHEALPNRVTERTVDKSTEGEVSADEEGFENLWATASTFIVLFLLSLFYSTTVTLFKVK
T3 sequence (P01876 whole entry): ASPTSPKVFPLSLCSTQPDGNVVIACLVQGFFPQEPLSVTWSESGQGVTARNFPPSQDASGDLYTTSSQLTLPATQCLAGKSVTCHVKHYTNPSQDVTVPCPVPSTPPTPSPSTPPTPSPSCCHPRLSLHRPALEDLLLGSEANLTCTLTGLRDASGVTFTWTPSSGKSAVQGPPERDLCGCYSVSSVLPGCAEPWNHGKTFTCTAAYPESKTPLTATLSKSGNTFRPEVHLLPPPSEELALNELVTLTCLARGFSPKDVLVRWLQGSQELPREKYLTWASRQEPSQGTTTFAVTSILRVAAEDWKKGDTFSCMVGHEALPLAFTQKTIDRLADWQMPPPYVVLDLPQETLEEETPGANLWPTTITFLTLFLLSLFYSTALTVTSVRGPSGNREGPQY

| EC50 [1] [nM] | mean fluorescence intensity at the top saturating concentration tested [1] [MFI] | binding result [2] | Kd [10] [nM] | koff [10] [s⁻¹] | kon [10] [M⁻¹ s⁻¹] | Kd [11] [nM] | koff [11] [s⁻¹] | kon [11] [M⁻¹ s⁻¹] | Binder | also measured |
| --- | --- | --- | --- | --- | --- | --- | --- | --- | --- | --- |
| 11.9 | 23600 | no binding |  |  |  |  |  |  | GBT-IgA-0035 (ET17) (antibody, V domains shown, Heavy constant region of the tested format is not tied to this name; also called E17) VH: EVQLLESGGGLVQPGGSLRLSCAASGFTFSRYAMSWVRQVPGKGLEWVSAITGSGSGTYYADPVKGRFTISRDNSKNTLYLQMNSLRAEDTAVYHCAKERSGSSSDYWGQGTLVTVSS VL: EIVLTQSPATLSLSPGERATLSCRASQTVGSHLAWYQQKPGQAPRLLIYEASNRATGIPPRFSGSGSGTDFTLTISSLEPEDFAVYYCQQRNNWPITFGQGTRLESKR |  |
| 64.5 | 23100 | no binding |  |  |  |  |  |  | GBT-IgA-0020 (15E7) (antibody, V domains shown) VH: EVQLLESGGGLVQPGGSLRLSCAASGFTFSSYAMSWVRQVPGKGLEWVSAITGSGSGTYYADPVKGRFTISRDNSKNTLYLQMNSLRAEDTAVYHCAKERSGSSSDYWGQGTLVTVSS VL: EIVLTQSPATLSLSPGERATLSCRASQTVSSYLAWYQQKPGQAPRLLIYEASNRATGIPPRFSGSGSGTDFTLTISSLEPEDFAVYYCQQRNNWPITFGQGTRLESKR |  |
| 10.8 | 26100 | no binding |  |  |  |  |  |  | GBT-IgA-0036 (ET18) (antibody, V domains shown, Heavy constant region of the tested format is not tied to this name; also called E18) VH: EVQLLESGGGLVQPGGSLRLSCAASGFTFSRYAMSWVRQVPGKGLEWVSAITGSGSGTYYADPVKGRFTISRDNSKNTLYLQMNSLRAEDTAVYHCAKERSGSSSDYWGQGTLVTVSS VL: EIVLTQSPATLSLSPGERATLSCRASQTVSSHLAWYQQKPGQAPRLLIYEASNRATGIPPRFSGSGSGTDFTLTISSLEPEDFAVYYCQQRNNWPITFGQGTRLESKR |  |
| 27 | 22600 | no binding |  |  |  |  |  |  | GBT-IgA-0034 (ET10) (antibody, V domains shown, Heavy constant region of the tested format is not tied to this name; also called E10) VH: EVQLLESGGGLVQPGGSLRLSCAASGFTFSSYAMSWVRQVPGKGLEWVSSITGSGGGTYYADPVKGRFTISRDNSKNTLYLQMNSLRAEDTAVYHCAKERSGSSSDYWGQGTLVTVSS VL: EIVLTQSPATLSLSPGERATLSCRASQTVRSHLAWYQQKPGQAPRLLIYEASNRATGIPPRFSGSGSGTDFTLTISSLEPEDFAVYYCQQRNNWPITFGQGTRLESKR |  |
|  |  |  |  |  |  |  |  |  | GBT-IgA-0661 (T18-CD3 bispecific EFN EE/RR huIgG1) (bispecific antibody) heavy 1: not shown light 1: not shown heavy 2: EVQLVESGGGLVQPGGSLRLSCAASGFTFSDYYMTWVRQAPGKGLEWVAFIRNQARGYTSDHNPSVKGRFTISRDNAKNSLYLQMNSLRAEDTAVYYCARDRPSYYVLDYWGQGTTVTVSSASTKGPSVFPLAPSSKSTSGGTAALGCLVKDYFPEPVTVSWNSGALTSGVHTFPAVLQSSGLYSLSSVVTVPSSSLGTQTYICNVNHKPSNTKVDKKVEPKSCEKTHTCPPCPAPEAAGAPSVFLFPPKPKDTLMISRTPEVTCVVVDVSHEDPEVKFNWYVDGVEVHNAKTKPREEQYNSTYRVVSVLTVLHQDWLNGKEYKCKVSNKALPAPIEKTISKAKGQPREPQVYTLPPSREEMTKNQVSLTCEVKGFYPSDIAVEWESNGQPENNYKTTPPVLDSDGSFFLYSKLTVDKSRWQQGNVFSCSVMHEALHNHYTQKSLSLSPGK light 2: DIQMTQSPSSLSASVGDRVTITCTSSQSLFNVRSQKNYLAWYQQKPGKAPKLLIYWASTRESGVPSRFSGSGSGTDFTLTISSLQPEDFATYYCKQSYDLFTFGGGTKVEIKRTVAAPSVFIFPPSDEQLKSGTASVVCLLNNFYPREAKVQWKVDNALQSGNSQESVTEQDSKDSTYSLSSTLTLSKADYEKHKVYACEVTHQGLSSPVTKSFNRGEC | reduction of secreted IgA in PBMC supernatants at 300 nM (IgA ELISA) [3]: 52%; EC50 (nM), reduction in secreted IgA in human PBMC supernatants [4]: 21.2 nM; EC50 (nM), cytotoxicity against IgA^+ CD20^+ B cells by flow cytometry [5]: 2.68 nM |
|  |  |  |  |  |  |  |  |  | GBT-IgA-1164, anti-MIGIS-α/CD3 bispecific antibody (bispecific antibody) heavy 1: not shown light 1: not shown heavy 2: EVQLVESGGGLVQPGGSLRLSCAASGFTFSDYYMTWVRQAPGKGLEWVAFIRNQARGYTSDHNPSVKGRFTISRDNAKNSLYLQMNSLRAEDTAVYYCARDRPSYYVLDYWGQGTTVTVSSASTKGPSVFPLAPSSKSTSGGTAALGCLVKDYFPEPVTVSWNSGALTSGVHTFPAVLQSSGLYSLSSVVTVPSSSLGTQTYICNVNHKPSNTKVDKKVEPKSCEKTHTCPPCPAPEAAGAPSVFLFPPKPKDTLMISRTPEVTCVVVDVSHEDPEVKFNWYVDGVEVHNAKTKPREEQYNSTYRVVSVLTVLHQDWLNGKEYKCKVSNKALPAPIEKTISKAKGQPREPQVYTLPPSREEMTKNQVSLTCEVKGFYPSDIAVEWESNGQPENNYKTTPPVLDSDGSFFLYSKLTVDKSRWQQGNVFSCSVMHEALHNHYTQKSLSLSPGK light 2: DIQMTQSPSSLSASVGDRVTITCTSSQSLFNVRSQKNYLAWYQQKPGKAPKLLIYWASTRESGVPSRFSGSGSGTDFTLTISSLQPEDFATYYCKQSYDLFTFGGGTKVEIKRTVAAPSVFIFPPSDEQLKSGTASVVCLLNNFYPREAKVQWKVDNALQSGNSQESVTEQDSKDSTYSLSSTLTLSKADYEKHKVYACEVTHQGLSSPVTKSFNRGEC | EC50 (nM), IgA^+ memory B cell kill [6]: 0.318 nM; EC50 (nM), IgA producing B cell kill [7]: 0.916 nM |
|  |  | no binding |  |  |  |  |  |  | GBT-IgA-0033 (H05) (antibody, V domains shown, Parental clone from naive library; huIgG1; also called HOS) VH: QVQLVESGGGVVQPGRSLRLSCAASGFTFSSYGMHWVRQAPGKGLEWVAVISYDGSNKYYADSVKGRFTISRDNSKNTLYLQMNSLRAEDTAVYYCAKLYGGNPEDAIDYWGRGTLVTVSS VL: not shown | EC50 [8]: 91.4 nM; Top [9]: 8440 gMFI |
|  |  |  | 210 | 0.0222 | 105000 | 56 | 0.0154 | 275000 | GBT-IgA-0070 (H05 in one arm antibody format) (antibody, also called H05 OAA) heavy: not shown EPKSSDKTHTCPPCPAPEAAGAPSVFLFPPKPKDTLMISRTPEVTCVVVDVSHEDPEVKFNWYVDGVEVHNAKTKPREEQYNSTYRVVSVLTVLHQDWLNGKEYKCKVSNKALPAPIEKTISKAKGQPREPQVYTLPPCREEMTKNQVSLSCAVKGFYPSDIAVEWESNGQPENNYKTTPPVLDSDGSFFLVSKLTVDKSRWQQGNVFSCSVMHEALHNRYTQKSLSLSPGK light: not shown |  |
|  |  |  | 0.724 | 0.0015 | 2.06e+06 | 1.05 | 0.0013 | 1.27e+06 | GBT-IgA-1090 (antibody, One-armed antibody) heavy: not shown EPKSSDKTHTCPPCPAPEAAGAPSVFLFPPKPKDTLMISRTPEVTCVVVDVSHEDPEVKFNWYVDGVEVHNAKTKPREEQYNSTYRVVSVLTVLHQDWLNGKEYKCKVSNKALPAPIEKTISKAKGQPREPQVYTLPPCREEMTKNQVSLSCAVKGFYPSDIAVEWESNGQPENNYKTTPPVLDSDGSFFLVSKLTVDKSRWQQGNVFSCSVMHEALHNRYTQKSLSLSPGK light: not shown |  |
|  |  |  | 2.13 | 0.0028 | 1.32e+06 | 2.46 | 0.0023 | 953000 | GBT-IgA-1091 (antibody, One-armed antibody; also called one armed antibody version of GBT-IgA-1602; OAA of GBT-IgA-1179) heavy: not shown EPKSSDKTHTCPPCPAPEAAGAPSVFLFPPKPKDTLMISRTPEVTCVVVDVSHEDPEVKFNWYVDGVEVHNAKTKPREEQYNSTYRVVSVLTVLHQDWLNGKEYKCKVSNKALPAPIEKTISKAKGQPREPQVYTLPPCREEMTKNQVSLSCAVKGFYPSDIAVEWESNGQPENNYKTTPPVLDSDGSFFLVSKLTVDKSRWQQGNVFSCSVMHEALHNRYTQKSLSLSPGK light: not shown |  |
|  |  |  | 3.47 | 0.0028 | 818000 | 3.4 | 0.0018 | 548000 | GBT-IgA-1572 (antibody, One-armed antibody) heavy: not shown EPKSSDKTHTCPPCPAPEAAGAPSVFLFPPKPKDTLMISRTPEVTCVVVDVSHEDPEVKFNWYVDGVEVHNAKTKPREEQYNSTYRVVSVLTVLHQDWLNGKEYKCKVSNKALPAPIEKTISKAKGQPREPQVYTLPPCREEMTKNQVSLSCAVKGFYPSDIAVEWESNGQPENNYKTTPPVLDSDGSFFLVSKLTVDKSRWQQGNVFSCSVMHEALHNRYTQKSLSLSPGK light: not shown |  |
|  |  |  | 0.665 | 0.0015 | 2.29e+06 | 0.795 | 0.0017 | 2.22e+06 | GBT-IgA-0752 (GBT-IgA-0862 in one armed format) (antibody, also called one armed format of GBT-IgA-0862 and of GBT-IgA-1164) heavy: not shown EPKSSDKTHTCPPCPAPEAAGAPSVFLFPPKPKDTLMISRTPEVTCVVVDVSHEDPEVKFNWYVDGVEVHNAKTKPREEQYNSTYRVVSVLTVLHQDWLNGKEYKCKVSNKALPAPIEKTISKAKGQPREPQVYTLPPCREEMTKNQVSLSCAVKGFYPSDIAVEWESNGQPENNYKTTPPVLDSDGSFFLVSKLTVDKSRWQQGNVFSCSVMHEALHNRYTQKSLSLSPGK light: not shown | fold affinity difference against GBT-IgA-1091 [12]: ~3 fold; fold affinity gain over T18 [12]: ~16 fold; fold affinity difference against GBT-IgA-1091 [13]: ~3 fold; fold affinity gain over T18 [13]: ~14 fold |
|  |  |  |  |  |  |  |  |  | GBT-IgA-0836 (T18-NKp46 bsAb) (bispecific antibody) heavy 1: not shown light 1: not shown heavy 2: not shown light 2: DIQMTQTTSSLSASLGDRVTISCRASQDISNYLNWYQQKPDGTVKLLIYYTSRLHSGVPSRFSGSGSGTDYSLTINNLEQEDIATYFCQQGNTRPWTFGGGTKLEIKRTVAAPSVFIFPPSDEQLKSGTASVVCLLNNFYPREAKVQWKVDNALQSGNSQESVTEQDSKDSTYSLSSTLTLSKADYEKHKVYACEVTHQGLSSPVTKSFNRGEC | reduction of secreted IgA in PBMC supernatants at 300 nM (IgA ELISA) [3]: 15%; EC50 (nM), reduction in secreted IgA in human PBMC supernatants [4]: 980 nM; EC50 (nM), cytotoxicity against IgA^+ CD20^+ B cells by flow cytometry [5]: 0.457 nM |

Source: patent US20250154287A1 (Pfizer, published 2025)
